The test concerns the target human transforming growth factor β2 (TGFβ2) (human) (UniProt P61812). As to the kind of experiment: cell-based or functional assay.

Chain of human transforming growth factor β2 (TGFβ2) (human) (P61812 303-414): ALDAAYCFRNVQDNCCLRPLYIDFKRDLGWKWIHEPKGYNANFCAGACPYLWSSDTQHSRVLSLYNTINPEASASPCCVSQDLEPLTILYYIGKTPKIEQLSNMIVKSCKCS

Regarding latency associated peptide (LAP), the Ki, reversal of TGFβ2-mediated inhibition of 3H-thymidine incorporation in mink lung epithelial cells was 500 pM.

Values taken from US20030064943A1.
